T1: Ies1 subunit of the INO80 complex (S. cerevisiae (endogenous, S288c …, UniProt P43579 1-692))
T1 construct: Ies1, N-module subunit of INO80, budding yeast; endogenous protein; Stood in the cross-linking assay as part of the whole purified complex; source: endogenously expressed in S. cerevisiae (S288c background; wild-type strain and yPB5), purified within the INO80 or INO80-AA complex (anti-FLAG M2 resin, Mono Q)
T1 sequence (looked up): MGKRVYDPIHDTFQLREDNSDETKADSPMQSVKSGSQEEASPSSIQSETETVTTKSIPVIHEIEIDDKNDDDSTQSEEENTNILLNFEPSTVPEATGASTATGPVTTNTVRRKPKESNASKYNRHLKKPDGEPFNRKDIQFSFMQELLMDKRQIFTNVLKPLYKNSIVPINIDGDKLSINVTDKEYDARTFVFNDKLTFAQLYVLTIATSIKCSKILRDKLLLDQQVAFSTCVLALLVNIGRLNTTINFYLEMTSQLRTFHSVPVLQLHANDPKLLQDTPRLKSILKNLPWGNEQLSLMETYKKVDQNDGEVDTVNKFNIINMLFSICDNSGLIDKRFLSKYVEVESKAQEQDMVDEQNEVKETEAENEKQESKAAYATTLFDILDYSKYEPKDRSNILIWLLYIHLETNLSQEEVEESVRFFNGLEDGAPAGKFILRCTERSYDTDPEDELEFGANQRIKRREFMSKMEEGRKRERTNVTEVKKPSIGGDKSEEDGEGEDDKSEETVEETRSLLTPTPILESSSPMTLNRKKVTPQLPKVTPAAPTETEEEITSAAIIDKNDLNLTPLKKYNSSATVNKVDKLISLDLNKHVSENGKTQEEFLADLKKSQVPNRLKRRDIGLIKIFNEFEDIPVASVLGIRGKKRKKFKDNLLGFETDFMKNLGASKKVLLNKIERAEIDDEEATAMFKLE

B1: Ino80 subunit of the INO80 complex (natural protein, UniProt P53115 1-1489, looked up)
chain: MSLAVLLNKEDKDISDFSKTTAGKSAKKNSRERVADVAPTRVLDKKQAYLSQLNSEFNRIKRRDSIEQLYQDWKFINLQEFELISEWNQQSKDWQFDNTNDSQDLHFKKLYRDMSMINKEWAEYQSFKNANLSDIINEKDADEDEEDDEDELEDGEEDMEEDEASTGRHTNGKSMRGNGIQKSRKKDAAAAAAIGKAIKDDQTHADTVVTVNGDENEDGNNGEDEDNDNDNENNNDNDNDNENENDNDSDNDDEEENGEEDEEEEEIEDLDEEDFAAFEEQDDNDDEDFNPDVEKRRKRSSSSSSSTKLSMNSLSLITSKKINKNITINSDRPKIVRELIKMCNKNKHQKIKKRRFTNCIVTDYNPIDSKLNIKITLKQYHVKRLKKLINDAKREREREEALKNNVGLDGNDLDNDEDGSESHKRRKLNNNTANGADDANKRKFNTRHGLPTYGMKMNAKEARAIQRHYDNTYTTIWKDMARKDSTKMSRLVQQIQSIRSTNFRKTSSLCAREAKKWQSKNFKQIKDFQTRARRGIREMSNFWKKNEREERDLKKKIEKEAMEQAKKEEEEKESKRQAKKLNFLLTQTELYSHFIGRKIKTNELEGNNVSSNDSESQKNIDISALAPNKNDFHAIDFDNENDEQLRLRAAENASNALAETRAKAKQFDDHANAHEEEEEEDELNFQNPTSLGEITIEQPKILACTLKEYQLKGLNWLANLYDQGINGILADEMGLGKTVQSISVLAHLAENHNIWGPFLVVTPASTLHNWVNEISKFLPQFKILPYWGNANDRKVLRKFWDRKNLRYNKNAPFHVMVTSYQMVVTDANYLQKMKWQYMILDEAQAIKSSQSSRWKNLLSFHCRNRLLLTGTPIQNSMQELWALLHFIMPSLFDSHDEFNEWFSKDIESHAEANTKLNQQQLRRLHMILKPFMLRRVKKNVQSELGDKIEIDVLCDLTQRQAKLYQVLKSQISTNYDAIENAATNDSTSNSASNSGSDQNLINAVMQFRKVCNHPDLFERADVDSPFSFTTFGKTTSMLTASVANNNSSVISNSNMNLSSMSSNNISNGKFTDLIYSSRNPIKYSLPRLIYEDLILPNYNNDVDIANKLKNVKFNIFNPSTNYELCLFLSKLTGEPSLNEFFRVSTTPLLKRVIERTNGPKNTDSLSFKTITQELLEVTRNAPSEGVMASLLNVEKHAYEREYLNCIQRGYHPNVSAPPVTIEVLGSSHVTNSINNELFDPLISQALSDIPAITQYNMHVKKGIPVEDFPKTGLFPEPLNKNFSSNISMPSMDRFITESAKLRKLDELLVKLKSEGHRVLIYFQMTKMMDLMEEYLTYRQYNHIRLDGSSKLEDRRDLVHDWQTNPEIFVFLLSTRAGGLGINLTAADTVIFYDSDWNPTIDSQAMDRAHRLGQTRQVTVYRLLVRGTIEERMRDRAKQKEQVQQVVMEGKTQEKNIKTIEVGENDSEVTREGSKSISQDGIKEAASALA
notes: Ino80, motor ATPase and scaffold subunit of the INO80 complex, budding yeast; endogenous protein with chromosomally inserted tag; Stood in the cross-linking assay as part of the whole purified complex; also called Ino80 scaffold; motor ATPase Ino80; source: endogenously expressed in S. cerevisiae (S288c background; wild-type strain and yPB5), purified within the INO80 or INO80-AA complex …
B2: N-module of the INO80 complex (Nhp10/Ies1/Ies3/Ies5) (complex)
chain 1: MSVEEKKRRLEELKDQNVVLGLAIQRSRLSVKRLKLEYGVLLERLESRIELDPELNCEDPLPTLASFKQELLTKPFRKSKTKRHKVKERDPNMPKRPTNAYLLYCEMNKERIRQNGSLDVTRDLAEGWKNLNEQDRKPYYKLYSEDRERYQMEMEIYNKKISNIDADDDKEENEQKIKNNEEGSSTKVADSKGGEDGSLVSSN
chain 2: T1 sequence (looked up)
chain 3: MKFEDLLATNKQVQFAHAATQHYKSVKTPDFLEKDPHHKKFHNADGLNQQGSSTPSTATDANAASTASTHTNTTTFKRHIVAVDDISKMNYEMIKNSPGNVITNANQDEIDISTLKTRLYKDNLYAMNDNFLQAVNDQIVTLNAAEQDQETEDPDLSDDEKIDILTKIQENLLEEYQKLSQKERKWFILKELLLDANVELDLFSNRGRKASHPIAFGAVAIPTNVNANSLAFNRTKRRKINKNGLLENIL
chain 4: MPSKDPESVIDKEIRKISARNDELIKQDGTLKREYTTLLRKVSSVITVLNSIDDADTGSAETELPRLISQATVEKVPELKWYNDQISLITEKLEDDEDIEVPEELMDAYTLYKETPLLYNDTHTP
notes: Nhp10, N-module subunit of INO80, budding yeast; endogenous protein; Ies1, N-module subunit of INO80, budding yeast; Ies3, N-module subunit of INO80, budding yeast; Ies5, N-module subunit of INO80, budding yeast; Stood in the cross-linking assay as part of the whole purified complex; also called NHP10 module; N-module subunits; source: endogenously expressed in S. cerevisiae (S288c background; …)
B3: the rest of the N-module of the INO80 complex (Nhp10/Ies3/Ies5) (complex)
chain 1: B2 chain 1
chain 2: B2 chain 3
chain 3: B2 chain 4
notes: Nhp10, N-module subunit of INO80, budding yeast; endogenous protein; Ies3, N-module subunit of INO80, budding yeast; Ies5, N-module subunit of INO80, budding yeast; source: endogenously expressed in S. cerevisiae (S288c background; wild-type strain and yPB5), purified within the INO80 or INO80-AA complex (anti-FLAG M2 resin, Mono Q); copies: + +

Tests used:
Experiment in all cases: cross-linking; DSBU cross-linking with mass spectrometry of the purified wild-type INO80 complex; 58 uM DSBU, 20 min, 30 C, 1200 rpm; 25 mM HEPES-NaOH pH 7.2, 300 mM NaCl, 5% glycerol, 1 mM DTT, 4 mM MgCl2; repeated with an independent batch
Conditions in all cases: both partners purified
[1] = molecular target: T2, A-module of the INO80 complex (Arp4/Arp8/Act1(actin)/Taf14/Ies4) (S. cerevisiae (endogenous, S288c …, UniProt P80428 1-489; Q12386 1-881; P60010 1-375; P35189 1-244; Q08561 1-116)
T2 construct: Arp4, A-module subunit of INO80, budding yeast; endogenous protein; Arp8, A-module subunit of INO80, budding yeast; endogenous wild-type protein; Act1 (actin), A-module subunit of INO80, budding yeast; Taf14, A-module subunit of INO80, budding yeast; Ies4, A-module subunit of INO80, budding yeast; Stood in the cross-linking assay as part of the whole purified wild-type complex; also called ARP8 …

[2] = molecular target: B1
[3] = molecular target: T1, Ies1 subunit of the INO80 complex

Binder: B1
binding result [1]: binds

Binder: B2
binding result [2]: binds

Binder: B3
binding result [3]: binds

From paper PMC13035910, “Dbf4-dependent kinase finetunes Ino80 function at chromosome replication origins” (Nature Communications, 2026)
